Results on 1 substance are retold here after publication PMC5206724, “Insensitivity to pain induced by a potent selective closed-state Nav1.7 inhibitor” (Scientific Reports, 2017).

Among the targets are human Nav1.2 (human) (UniProt Q99250); human Nav1.6 (human) (UniProt Q9UQD0); human Nav1.1 (human) (UniProt P35498); human Nav1.3 (human) (UniProt Q9NY46); human Nav1.5 (human) (UniProt Q14524); human Nav1.4 (human) (UniProt P35499).

human Nav1.6 (human), sequence (Q9UQD0 whole entry): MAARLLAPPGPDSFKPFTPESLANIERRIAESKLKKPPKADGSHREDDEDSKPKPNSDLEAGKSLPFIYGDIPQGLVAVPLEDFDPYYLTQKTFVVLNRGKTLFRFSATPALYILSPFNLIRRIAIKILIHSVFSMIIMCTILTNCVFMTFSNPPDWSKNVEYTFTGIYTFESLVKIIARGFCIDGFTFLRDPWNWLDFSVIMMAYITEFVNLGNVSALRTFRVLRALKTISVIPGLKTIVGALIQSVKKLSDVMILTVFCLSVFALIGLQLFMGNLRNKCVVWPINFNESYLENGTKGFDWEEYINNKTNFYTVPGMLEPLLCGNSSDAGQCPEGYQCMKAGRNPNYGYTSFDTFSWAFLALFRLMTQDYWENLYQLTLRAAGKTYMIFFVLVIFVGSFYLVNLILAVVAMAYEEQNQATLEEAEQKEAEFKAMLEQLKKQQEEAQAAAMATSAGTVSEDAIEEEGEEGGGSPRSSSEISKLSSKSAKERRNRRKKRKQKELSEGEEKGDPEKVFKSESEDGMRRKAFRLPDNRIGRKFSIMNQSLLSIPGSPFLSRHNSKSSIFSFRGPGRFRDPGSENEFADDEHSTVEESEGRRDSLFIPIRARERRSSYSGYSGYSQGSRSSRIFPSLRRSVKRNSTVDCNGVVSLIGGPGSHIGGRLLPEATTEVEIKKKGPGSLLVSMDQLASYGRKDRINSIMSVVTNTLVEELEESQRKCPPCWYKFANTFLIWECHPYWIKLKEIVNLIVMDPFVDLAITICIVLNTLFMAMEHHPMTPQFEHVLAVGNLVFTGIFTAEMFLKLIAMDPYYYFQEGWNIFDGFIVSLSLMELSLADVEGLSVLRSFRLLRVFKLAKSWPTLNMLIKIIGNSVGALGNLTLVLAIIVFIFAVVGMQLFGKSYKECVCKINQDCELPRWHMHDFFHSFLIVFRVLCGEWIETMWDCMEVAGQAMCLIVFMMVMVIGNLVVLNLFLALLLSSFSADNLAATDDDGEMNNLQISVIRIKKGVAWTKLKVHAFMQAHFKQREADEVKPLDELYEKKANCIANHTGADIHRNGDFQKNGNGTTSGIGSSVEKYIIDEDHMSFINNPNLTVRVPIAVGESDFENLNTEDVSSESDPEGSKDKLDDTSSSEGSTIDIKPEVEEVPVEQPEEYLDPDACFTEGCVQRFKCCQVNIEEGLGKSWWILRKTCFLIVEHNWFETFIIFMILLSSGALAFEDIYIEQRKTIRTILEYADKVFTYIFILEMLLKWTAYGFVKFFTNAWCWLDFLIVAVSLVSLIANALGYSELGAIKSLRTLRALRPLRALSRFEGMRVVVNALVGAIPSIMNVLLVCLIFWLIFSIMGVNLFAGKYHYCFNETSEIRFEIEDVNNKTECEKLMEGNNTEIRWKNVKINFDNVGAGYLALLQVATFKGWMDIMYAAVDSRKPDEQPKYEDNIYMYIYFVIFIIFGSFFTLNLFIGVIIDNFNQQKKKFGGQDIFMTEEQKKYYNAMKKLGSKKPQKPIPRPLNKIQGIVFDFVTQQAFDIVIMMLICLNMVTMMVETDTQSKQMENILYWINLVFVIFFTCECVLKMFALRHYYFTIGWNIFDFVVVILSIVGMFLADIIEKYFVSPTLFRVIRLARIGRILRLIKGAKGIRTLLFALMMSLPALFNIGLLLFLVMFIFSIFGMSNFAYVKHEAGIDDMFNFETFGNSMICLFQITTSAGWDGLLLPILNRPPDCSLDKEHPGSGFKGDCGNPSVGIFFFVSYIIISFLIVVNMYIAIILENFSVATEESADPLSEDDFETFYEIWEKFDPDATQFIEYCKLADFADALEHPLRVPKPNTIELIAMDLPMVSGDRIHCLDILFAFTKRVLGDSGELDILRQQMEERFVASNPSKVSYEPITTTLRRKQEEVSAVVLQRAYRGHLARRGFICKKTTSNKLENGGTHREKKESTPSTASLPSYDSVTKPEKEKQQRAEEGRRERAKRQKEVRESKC
human Nav1.3 (human), sequence (Q9NY46 whole entry): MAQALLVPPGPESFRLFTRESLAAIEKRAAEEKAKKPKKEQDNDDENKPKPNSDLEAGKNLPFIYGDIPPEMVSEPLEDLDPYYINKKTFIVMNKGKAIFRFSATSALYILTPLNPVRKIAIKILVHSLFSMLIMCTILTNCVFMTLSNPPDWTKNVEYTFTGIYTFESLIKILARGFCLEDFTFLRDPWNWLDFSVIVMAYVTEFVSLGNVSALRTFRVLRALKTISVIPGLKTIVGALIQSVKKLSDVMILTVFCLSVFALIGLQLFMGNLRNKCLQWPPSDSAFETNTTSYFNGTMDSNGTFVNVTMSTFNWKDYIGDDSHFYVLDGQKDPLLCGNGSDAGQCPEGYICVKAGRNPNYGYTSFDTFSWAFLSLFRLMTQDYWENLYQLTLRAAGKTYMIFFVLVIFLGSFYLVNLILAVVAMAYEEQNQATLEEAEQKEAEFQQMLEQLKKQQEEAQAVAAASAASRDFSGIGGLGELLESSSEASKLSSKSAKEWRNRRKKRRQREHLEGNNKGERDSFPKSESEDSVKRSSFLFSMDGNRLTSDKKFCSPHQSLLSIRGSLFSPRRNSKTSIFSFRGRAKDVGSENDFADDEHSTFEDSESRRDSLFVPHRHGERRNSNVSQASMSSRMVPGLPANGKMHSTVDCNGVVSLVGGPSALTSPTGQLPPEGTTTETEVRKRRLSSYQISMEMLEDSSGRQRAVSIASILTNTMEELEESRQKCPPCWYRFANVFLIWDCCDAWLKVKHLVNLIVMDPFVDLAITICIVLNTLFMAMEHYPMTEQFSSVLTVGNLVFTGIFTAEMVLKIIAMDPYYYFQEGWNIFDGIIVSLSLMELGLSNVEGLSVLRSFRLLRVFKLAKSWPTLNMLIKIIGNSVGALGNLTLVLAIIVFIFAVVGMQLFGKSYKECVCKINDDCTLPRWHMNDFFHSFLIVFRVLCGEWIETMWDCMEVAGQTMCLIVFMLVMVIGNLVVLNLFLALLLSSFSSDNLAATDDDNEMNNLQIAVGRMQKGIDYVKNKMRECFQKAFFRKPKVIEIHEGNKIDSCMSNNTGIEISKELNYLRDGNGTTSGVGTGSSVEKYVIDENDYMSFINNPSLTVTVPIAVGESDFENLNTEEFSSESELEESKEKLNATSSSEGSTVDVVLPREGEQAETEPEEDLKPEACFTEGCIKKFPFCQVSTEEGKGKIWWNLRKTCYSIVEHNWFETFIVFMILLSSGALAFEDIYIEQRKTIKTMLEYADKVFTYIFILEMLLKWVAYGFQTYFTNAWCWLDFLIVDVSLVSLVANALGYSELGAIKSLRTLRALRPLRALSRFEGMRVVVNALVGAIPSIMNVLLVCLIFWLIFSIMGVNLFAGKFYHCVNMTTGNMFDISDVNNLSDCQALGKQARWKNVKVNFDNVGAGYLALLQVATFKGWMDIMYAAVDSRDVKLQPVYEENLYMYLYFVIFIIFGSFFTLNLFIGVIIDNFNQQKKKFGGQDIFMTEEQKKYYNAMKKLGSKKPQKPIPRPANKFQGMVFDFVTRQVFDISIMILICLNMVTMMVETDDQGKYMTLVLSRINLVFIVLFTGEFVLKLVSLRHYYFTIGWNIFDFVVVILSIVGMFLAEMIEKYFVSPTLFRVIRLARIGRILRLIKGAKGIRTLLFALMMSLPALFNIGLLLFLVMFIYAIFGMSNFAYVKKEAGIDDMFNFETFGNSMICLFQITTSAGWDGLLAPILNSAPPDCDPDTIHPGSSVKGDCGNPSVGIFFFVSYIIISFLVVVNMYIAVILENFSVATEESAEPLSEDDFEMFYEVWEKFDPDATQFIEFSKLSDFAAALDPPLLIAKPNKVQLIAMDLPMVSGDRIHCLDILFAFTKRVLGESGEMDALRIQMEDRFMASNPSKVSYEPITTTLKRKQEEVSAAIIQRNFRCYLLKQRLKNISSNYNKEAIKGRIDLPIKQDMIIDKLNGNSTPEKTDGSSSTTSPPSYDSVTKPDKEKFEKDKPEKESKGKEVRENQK
Protoxin-II (β/ω-theraphotoxin-Tp2a), sequence (P83476 whole entry): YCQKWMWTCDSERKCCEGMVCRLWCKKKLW

“Protoxin-II (β/ω-theraphotoxin-Tp2a) (from UniProt P83476 1-30) (peptide)”: the pIC50 of inhibition of sodium current, automated patch clamp (QPatch); fitted Emax 100 % with human Nav1.2 (human) is 7.1 -log10(IC50); with human Nav1.6 (human), 7.5 -log10(IC50); in the assay with human Nav1.1 (human), 7.8 -log10(IC50); with human Nav1.3 (human), 7.6 -log10(IC50); with human Nav1.5 (human) it was 6.4 -log10(IC50); in the assay with human Nav1.4 (human), 7.1 -log10(IC50).
